Experimental data taken from US20240082389A1.

Target: ALFA nanobody (ALFANb) fused to the N-terminus of PTGFRN, displayed on the exterior surface of exosomes (UniProt Q9P2B2)
Test: IL-12 ELISA of loaded EVs

- fold more IL-12 loaded per EV than on control EVs with IL-12 genetically fused to PTGFRN: 290 fold
Substance: mouse IL-12 fused to ALFAtag peptide (ligand)
